Usually IC50 stands for the concentration needed to halve the response being measured. A high value points to a need for much substance.

These results are taken from patent publication US20260167731A1 (DOMAIN THERAPEUTICS, published 2026).

Values joined by “and” are separate entries in the source; they are usually repeats but may differ in a detail not shown here. Identical values can stand only once.

One assay has as its target hCCR8 SNAP-tag (human, UniProt P51685 1-355, SNAP-tag labelled with Lumi4-Terbium). Kind of assay: cell-based or functional assay.
The target of assay [1] is T1, human CCR8 (human, UniProt P51685 1-355).
T1 construct: also called hCCR8; hCCR8_P51685
Kind of assay: flow cytometry, hCCR8 transfected CHOK1 cells. The procedure: The same staining protocol was applied on human CCR8 transfected CHO cell line versus wild type CHO cell line, cutaneous T cell lymphoma HUT78 cell line and human activated T cell model.
Briefly, 1·10⁵ cells per well in a 96 well plate were incubated with a dilution of unconjugated anti-CCR8 mAb at 10 μg/mL then diluted at 1/3.33, 4 dilution points (during 30 min at 4° C.). In human activated T cells model, prior to mAb incubation, cells were first incubated with 200 nM of hCCL1 (R&D Systems, Minneapolis, MN, USA) or buffer PBS (Invitrogen by Thermofisher Scientific, Illkirch-Graffenstaden, France) supplemented by 2% Fetal Bovine Serum (Invitrogen by Thermofisher Scientific, Illkirch-Graffenstaden, France) and 2 mM EDTA (Invitrogen by Thermofisher Scientific, Illkirch-Graffenstaden, France) during 1 hour at 4° C. To determine EC50 value, 8 concentrations of anti-CCR8 mAb were tested. Unbound antibodies were washed away with PBS (Invitrogen by Thermofisher Scientific, Illkirch-Graffenstaden, France) supplemented by 2% Fetal Bovine Serum (Invitrogen by Thermofisher Scientific, Illkirch-Graffenstaden, France) and 2 mM EDTA (Invitrogen by Thermofisher Scientific, Illkirch-Graffenstaden, France). Subsequently, cells are centrifuged (5 min at 400 g) and bound antibody is detected with F(ab′)₂-Goat anti-Mouse IgG (H+L) Cross-Adsorbed Secondary Antibody, Alexa Fluor 488 (dilution 1/500) (Invitrogen by Thermofisher Scientific, Illkirch-Graffenstaden, France) or with F(ab′)₂-Goat anti-Human IgG Fc Secondary Antibody, PE (Invitrogen by Thermofisher Scientific, Illkirch-Graffenstaden, France) (dilution 1/1000) at 4° C. for 30 min. Detection reagent is washed away and cells are centrifuged (5 min at 400 g) and resuspended in 30 μL PBS. Bound detection antibody is quantified on a MacsQuant16 (Miltenyi, Gladbach, Germany) (B1 or B2 channel, 5000 events per acquisition). During the experiment, the respective isotype mAb controls (mouse IgG1, mouse IgG2a, mouse IgG2b, mouse IgG3 or human IgG1) (Biolegend, Amsterdam, The Netherlands) are included to exclude any unspecific binding events.
For orientation: In flow cytometry, cells or beads pass a laser one at a time.

Assay [2] deals with T1, human CCR8. Kind of assay: cell-based or functional assay.
Assay [3] deals with T1, human CCR8. Kind of assay: flow cytometry, inhibition of hCCL1-AF647 binding to hCCR8 CHO cells. The procedure: The hCCR8 transfected CHO cell line was dispatched at a density of 1·10⁵ per well in a 96-well plate. Cells were incubated for 30 min at 4° C. with or without anti-CCR8 mAb tested at 10 μg/mL then diluted at 1/3. Unbound antibodies were washed away with PBS (Gibco, Villebon-sur-Yvette, France) supplemented by 2% Fetal Bovine Serum (Invitrogen by Thermofisher Scientific, Illkirch-Graffenstaden, France) and 2 mM EDTA. […] After washing unbound ligands, CCL1 bound detection is quantified on a MacsQuant16 (Miltenyi, Gladbach, Germany) (R1 channel, 5 000 events per acquisition).
For IC₅₀ determination, a concentration response curve is performed using 8 concentrations of mAb. Curves are fitted and IC₅₀ of CCL1 binding blocking activity is calculated using the sigmoidal dose-response (variable slope) model on GraphPad Prism 9 (GraphPad Software, San Diego, CA, USA).

In assay [4] the target is T1, human CCR8. Kind of assay: cell-based or functional assay. This is another data set of the same source.
For assay [5], the target named is T1, human CCR8. Kind of assay: cell-based or functional assay. This is another data set of the same source.
Assay [6] concerns the target pm1, modified CCR8 related peptide (human, sulfated tyrosine at Y15). Kind of assay: ELISA on coated CCR8 peptide (500 ng/mL), OD [cont.]. The procedure: (§1) The specific binding properties of antibodies were evaluated by ELISA with coated CCR8 related peptides (500 ng/mL) in carbonate/bicarbonate buffer. Different peptides were used as described in Table 1 (see Example 1). Each anti-CCR8 mAb was tested at 1 μg/mL then diluted at 1/10. After an incubation at room temperature during 90 min, unbound mAbs were removed by washings. […] After washings, 3,3′,5,5′-tetramethylbenzidine (TMB) (Interchim, Montlugon, France) was added for 15 min. Then the optical density (OD) was determined by using a multiplate reader (Tecan, Lyon, France) and correlated with mAb reactivity on the panel of coated peptides.
In general terms: ELISA stands for enzyme-linked immunosorbent assay.

In assay [7] the target is pm8, modified CCR8 related peptide (human, sulfated tyrosines at Y15, Y16 and Y17). Described as above. Here is the method: as §1
pm8, modified CCR8 related peptide (human, sulfated tyrosines at Y15, Y16 and Y17), sequence (peptide, as listed by the source): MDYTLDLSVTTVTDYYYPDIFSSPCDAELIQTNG
The target in assay [8] is pm2, modified CCR8 related peptide (human, sulfated tyrosine at Y16). The assay is described as above. Here is the method:
as §1

Assay [9] concerns the target pm3, modified CCR8 related peptide (human, sulfated tyrosine at Y17). The description is as above. The procedure:
as §1

The target of assay [10] is pm4, modified CCR8 related peptide (human, sulfated tyrosines at Y15 and Y16). The description is as above. The procedure: as §1
pm4, modified CCR8 related peptide (human, sulfated tyrosines at Y15 and Y16), sequence (peptide, as listed by the source): as above
The target in assay [11] is T2, pwt1, unmodified CCR8 related peptide (human, none (non-sulfated Y15, Y16, Y17)).
T2 construct: First 34 amino acids of human CCR8, synthetic; also called unmodified peptide
T2 sequence (peptide, as listed by the source): as above
Described as above. The procedure: as §1

Assay [12] concerns the target pm6, modified CCR8 related peptide (human, sulfated tyrosines at Y16 and Y17). The assay is described as above. The procedure:
as §1

Assay [13] deals with pm5, modified CCR8 related peptide (human, sulfated tyrosines at Y15 and Y17). The assay is described as above. Here is the method:
as §1

pm6, modified CCR8 related peptide (human, sulfated tyrosines at Y16 and Y17), sequence (peptide, as listed by the source): as above
pm5, modified CCR8 related peptide (human, sulfated tyrosines at Y15 and Y17), sequence (peptide, as listed by the source): as above
pm1, modified CCR8 related peptide (human, sulfated tyrosine at Y15), sequence (peptide, as listed by the source): as above
pm2, modified CCR8 related peptide (human, sulfated tyrosine at Y16), sequence (peptide, as listed by the source): as above
pm3, modified CCR8 related peptide (human, sulfated tyrosine at Y17), sequence (peptide, as listed by the source): as above

B1: Ref #3 (Anti-CCR8-1 of US 2021/0238292 A1) (antibody, human IgG1, V domains shown)
VH: QVQLVQSGAEVKKPGASVKVSCKASGYTFTSYYMHWVRQAPGQGLEWMGIINPSGGSTSYAQKFQGRVTMTRDTSTSTVYMELSSLRSEDTAVYYCARAVRNRFRFDYWGQGTLVTVSS
VL: QSALTQPASVSGSPGQSITISCTGTSSDVGSYNLVSWYQQHPGKAPKLMIYEVSKRPSGVSNRFSGSKSGNTASLTISGLQAEDEADYYCSSYAGSSTFVVFGGGTKLTVL
Take B1: in the assay with hCCR8 SNAP-tag, the “% of internalization at 1 µg/ml (CCL1 at 300 nM = 100%), HTRF” value was found to be 100% and the “% of internalization at 10 µg/ml (CCL1 at 300 nM = 100%), HTRF” value came out at 90%.

B2: anti-CCR8 mAb 2-3 (antibody, V domains shown)
VH: EVQLQQSGPELLKPGTSVKISCTTSGYTFSDYTLHWVKQSHGKSLEWIGGITPKNGDTRYDPRFKDKATLTIDKSSSAAYMELRSLTSEDSAVYYCARVARFYGVSPYAMDYWGQGASVTVSS
VL: DVVMTQTPLSLPVSLGDQASISCRCTQSLLHSNGDTYLHWYLQKPGQSPKLLIYKVSNRFSGVPDRFSGSGSGTDFTLEITRVEAEDLGVYFCSQTTHVPYTFGGGTKLEIK
Regarding B2, in the assay with human CCR8 [1], the “% positive cells” value is 81.1% and the “MFI fold change to isotype ctrl” value turned out to be 10.7 fold. Also, in the assay with human CCR8 [2], the “hCCL1 (100 nM) residual response in %, Protocol #2, mAb 0.08 µg/mL (0.53 nM)” value was found to be 79%; the “hCCL1 (100 nM) residual response in %, Protocol #2, mAb 0.4 µg/mL (2.67 nM)” value came out at 38%; the “hCCL1 (100 nM) residual response in %, Protocol #2, mAb 10 µg/mL (66.7 nM)” value amounted to 17%; the “hCCL1 (100 nM) residual response in %, Protocol #3, mAb 0.05 µg/mL (0.33 nM)” value was 102%. Also, in the assay with human CCR8 [2], the “hCCL1 (100 nM) residual response in %, Protocol #3, mAb 0.5 µg/mL (3.33 nM)” value worked out at 64% and the “hCCL1 (100 nM) residual response in %, Protocol #3, mAb 5 µg/mL (33.3 nM)” value worked out at 47%. The 50% inhibitory concentration (IC50) with human CCR8 [3] was 1.3 µg/mL and 8.71 nM. Besides, in the assay with human CCR8 [4], the “IC50, CCL1 induced hCCR8 Gi2 signaling (BRET, HEK-293)” value is 0.049 µg/mL and 0.328 nM. In the assay with human CCR8 [5], the “IC50, CCL1 induced hCCR8 Gi2 signaling (BRET) at pH 6.5” value is 0.044 µg/ml and 0.292 nM; the “IC50, CCL1 induced hCCR8 Gi2 signaling (BRET) at pH 7.4” value was 0.061 µg/ml and 0.405 nM. Further, the binding result in assay [6] is given as “binds”. For the same molecule, the binding result in assay [7] is listed as “binds”. Besides, in assay [8], the binding result is listed as “binds”. The binding result in assay [9] is “binds”. In addition, in [10], the binding result was “binds”. Also, in assay [11], the binding result is listed as “binds”. Further, in [12], the binding result is on record as “binds”. In addition, the binding result in [13] is on record as “binds”.

B3: anti-CCR8 mAb 2-8 (antibody, V domains shown)
VH: QVQLKESGPGLVAPSQSLSITCTVSGFSLTDYGVSWIRQPPGKGPEWLGVIWGGGNTYYNSVLKSRLSISNDNSKSQVFLRMNSLQTADTAIYYCARPRRDYYALDYWGQGTSVTVAS
VL: DVVMTQTPLSLPVSLGDQASISCRSSQSLVYTNGNTFLHWYLQKPGQSPKLLIYKVSNRFSGVPDRFSGSGSGTDFTLKISRVEAEDLGVYFCSQSTHVPPTFGGGTKLEIK
Consider B3, for which the “% positive cells” value in the assay with human CCR8 [1] was found to be 78.9%. Moreover, the “MFI fold change to isotype ctrl” value in the assay with human CCR8 [1] is 6.36 fold. In the assay with human CCR8 [3], the IC50 was 2.22 µg/mL and 14.8 nM. For the same molecule, the “IC50, CCL1 induced hCCR8 Gi2 signaling (BRET, HEK-293)” value with human CCR8 [4] is 0.712 µg/mL and 4.75 nM. Further, the “IC50, CCL1 induced hCCR8 Gi2 signaling (BRET) at pH 6.5” value with human CCR8 [5] was 0.578 µg/ml and 3.85 nM. The “IC50, CCL1 induced hCCR8 Gi2 signaling (BRET) at pH 7.4” value with human CCR8 [5] is 0.812 µg/ml and 5.41 nM. In addition, the binding result in assay [6], in assay [7], in [8], in [9], in [10] and in [11] was “binds” each time. For the same molecule, the binding result in assay [12] and in assay [13] was “binds” in each case.

B4: Ref #4 (137-H3L2 (LM-108) of WO 2022/078277) (antibody, human IgG1, V domains shown)
VH: EVQLVESGGGLVQPGGSLKLSCAASGFTFNTYAMNWVRQASGKGLEWVARIRSKANNYATYYADSVKDRFTISRDDSKNTLYLQMNNLKTEDTAVYYCVRDRSRGEDYAMDYWGQGTLVTVSS
VL: DIVMTQSPLSLPVTPGEPASISCRSSKSLLHSNANTYLYWFLQKPGQSPQLLIYRMSNLASGVPDRFSGSGSGTAFTLKISRVEAEDVGVYYCMQHLEYPFTFGQGTKLEIK
Regarding B4, in the assay with hCCR8 SNAP-tag, the “% of internalization at 1 µg/ml (CCL1 at 300 nM = 100%), HTRF” value was 95% and the “% of internalization at 10 µg/ml (CCL1 at 300 nM = 100%), HTRF” value stood at 103%.
